Reference: publication PMC8999711

Target: ActR-IIB extracellular domain (type II receptor ectodomain) (UniProt Q13705)
Experiment: SPR; Reichert4SPR; biotinylated receptor ectodomains immobilised on a streptavidin-coated CMD200 chip (350-500 RU); BMP2 ligands as analytes, six concentrations from 160 nM (log 2 dilution series); 25 °C; 10 mM HEPES pH 7.4, 500 mM NaCl, 3.4 mM EDTA, 0.005% Tween-20; 10 μL/min; 1:1 Langmuir global fit; apparent KD, mean of two independent experiments

Sequence of UniProt Q13705 (Q13705 19-137): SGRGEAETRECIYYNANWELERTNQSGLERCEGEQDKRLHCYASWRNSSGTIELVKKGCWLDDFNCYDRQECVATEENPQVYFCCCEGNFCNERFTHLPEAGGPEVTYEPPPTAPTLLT

BMP2 Azide (BMP2 variant with H-L-Lys(EO-N3)-OH at position 83 of each chain) (ligand)
Kd: 11.6 nM
